The record followed here is patent US20230265152A1, “GLP-1R AGONIST / FGF21 FUSION PROTEINS” (SANOFI, priority 2020, published 2023).

Marks after values point to notes of the source that are not given here.

Data set [1] can be described thus: Thermal shift assay (DSF, Sypro Orange). It counts as physicochemical. The following applies: Data generated via DSF. From the text:
In addition, for some proteins, a thermal shift assay was applied to analyze thermostability in imitation of differential scanning fluorimetry (DSF or ThermoFluor™) assays (Ahmad S. et al. (2012) Protein Science 21: 433-446; Pantoliano et al. (2001) J. Biomol. Screen 6: 429-440; Niesen et al. (2007) Nat. Protoc. 2: 2212-21). This assay is based on the observation that hydrophobic fluorescent dyes, such as Sypro™ Orange (Life Technologies, cat. No. S6651), increase their fluorescence when they bind to hydrophobic patches on a protein.
Proteins were tested by mixing a solution of each protein in PBS (Gibco) with a 160x solution of Sypro™ Orange (diluted in water from a 5000X DMSO stock as provided by the supplier). The sample volume was adjusted to 20 µL with PBS. Typical conditions contained 0.8 mg/mL protein and 8x Sypro™ Orange in the final mixture, but protein concentrations could be varied between 0.4 mg/mL and 1.2 mg/mL. Samples were dispensed in 96-well PCR plates (BioRad Semi-Skirt 96 white) and shortly centrifuged to remove air bubbles. […] For excitation and quantification of fluorescence, filters for wavelengths of 485 nm and 575 nm were chosen. […] In curves of fluorescence intensity against temperature, the inflection point was chosen as the measure for the melting temperature (Tm).
In general terms: DSF heats the sample and reads unfolding from a dye or from intrinsic fluorescence.

Data set [2] in a line: Pharmacokinetics after single subcutaneous administration in mouse. The following applies: 0.3 mg/kg s.c.; assay FGF21 intact. It counts as in vivo, female C57Bl/6 mice. As to the method:
Plasma concentrations and pharmacokinetic parameters of GLP-1RA/FGF21 Fc fusion proteins were determined after single subcutaneous administration of 0.3 mg/kg in solution to female C57Bl/6 mice or male Cynomolgus monkeys using three different methods. Blood samples were obtained at time points from 30 minutes to 168 hours after dosing.
Plasma samples were analyzed for the intact FGF21 part of the fusion proteins with an ELISA kit (F1231-K01, Eagle Biosciences, USA). The assay utilized the two-site sandwich technique with two selected antibodies that bound to different epitopes of human intact FGF21. […] For the detection of the immunocomplex, the well was then incubated with a substrate solution in a timed reaction and then measured in a spectrophotometric microplate reader. […]
The concentration of the full-length GLP-1RA/FGF21 Fc fusion proteins in plasma were determined utilizing an ELISA method. […] Following washing 3 times with 300 µL PBS-T 150 µL read buffer was added to the wells.
Plasma samples were analyzed for the intact GLP-1 part of the fusion proteins with a GLP-1 ELISA method. […] Following washing 3 times with 300 µL PBS-T, 150 µL read buffer was added to the wells.
The pharmacokinetic parameters were calculated by the program WinNonlin 6.4 using a non-compartmental model and linear trapezoidal interpolation calculation. […]

B1: 252 (protein)
chain: GHPIPDSSPLLQFGGQVRQRYLYTDDAQQTEAHLEIREDGTVGGAADQSPESLLQLKALKPGVIQILGVKTSRFLCQRPDGALYGSLHFDPEACSFRELLLEDGYNVYQSEAHGLPLHLPGNKSPHRDPAPRGPARFLPLPGLPPAPPEPPGILAPQPPDVGSSDPLSMVGPSQGRSPSYAS
modifications: G-FGF21
In the case of B1, the Tm in data set [1] was 43.1 * °C. The same molecule displayed a t½ mouse in data set [2] of 42 min.
